Where a chain is given by its changes, count along the chain named.
B1: humanized anti-TrkA antibody 42F5-03 (antibody, V domains shown)
VH: QVQLVQSGAEVKKPGASVKVSCKSSGYTFTNYWMHWVRQAPGQGLEWIGEIYPNNGRVNYNEKFKNRATLTVDISISTAYMELSRLRSDDTAVYYCARSRYDPMEDWGQGTTVTVSS
VL: DVQLTQSPSSLSASVGDRVTITCSASSSVGYMHWYQQKPGKAPKRWIYDTSKLASGVPSRFSGSGSGTDYTLTISSLQPEDFATYFCQQWSSIPLTFGQGTRLEIK
notes: VH grafted to human IgG4 heavy chain constant region, VL to human Kappa light chain constant region
B2: humanized anti-TrkA antibody 42F5-04 (antibody, V domains shown)
VH: B1 VH with A16S, I76T, R85S, D89E
VL: B1 VL
notes: as for B1
B3: control antibody BXhVH5VL1 (antibody, V domains shown)
VH: EVKLLESGGGLVQPGGSLRLSCAASGFTFSTYTMSWVRQTPGKRLEWVAYISKGGGSTYYPDTVKGRFTISRDNSKNTLYLQMNSLRAEDTAVYYCARGAMYGNDFFYPMDYWGQGTTVTVSS
VL: EIVLTQSPATLSLSPGERATLSCSASSSVSYMHWYQQKPGQAPRLLIYTTSNLASGIPARFSGSGSGTDFTLTISSLEPEDFAVYYCHQWSSYPWTFGQGTKLEIK
B4: humanized anti-TrkA antibody 42F5-08 (antibody, V domains shown)
VH: B1 VH with A16S, I76T, R85S, D89E
VL: B1 VL with D1Q
notes: VH grafted to human IgG4 heavy chain constant region, VL to human Kappa light chain constant region; also called 43F5-08 [sic]
B5: humanized anti-TrkA antibody 42F5-13 (antibody, V domains shown)
VH: B1 VH with I48M, N55S, A68V, L70M
VL: B1 VL with W46L
notes: 42F5-01 with NG55-56 of the VH mutated to SG55-56
B6: humanized anti-TrkA antibody 42F5-14 (antibody, V domains shown)
VH: B1 VH with I48M, N55Q, A68V, L70M
VL: B1 VL with W46L
notes: 42F5-01 with NG55-56 of the VH mutated to QG55-56
B7: humanized anti-TrkA antibody 42F5-11 (antibody, V domains shown)
VH: B1 VH
VL: EVVLTQSPATLSLSPGERATLSCSASSSVGYMHWYQQKPGQAPRRWIYDTSKLASGVPARFSGSGSGTDYTLTISSLEPEDAAVYFCQQWSSIPLTFGQGTRLEIK
notes: as for B1

target: T1, human TrkC expressed on CHO cells (TrkC/CHO, ThermoFisher K1515) (human, UniProt Q16288 32-839); test: flow cytometry on TrkC/CHO cells
T1 construct: whole, on cells
Method: (§1) CHO-K1 was used as a negative control. The binding of the humanized antibodies to the four cell lines was detected by flow cytometry.
(§2) The cells were cultured according to the manufacturer's instruction. The cells were harvested in the logarithmic growth phase, re-suspended in flow buffer (PBS+2% FBS, pH 7.4), and added into 96-well plate, 10^5 cells per well (50 µl). 50 µl of 100 µg/mL humanized anti-TrkA antibody was added, incubated at room temperature for 60 min, and centrifuged at 1200 rpm. The supernatant was discarded and the cells were washed 3 times. FITC-labeled goat anti-human Fc antibody (Abeam, ab97224) was diluted to 5 µg/mL with flow buffer and used to re-suspend the cells, incubated at room temperature for 30 min in the dark, centrifuged, and the supernatant was discarded. After washing 3 times, the cells were re-suspended with 7AAD solution (Biolegend, 420403), incubated for 10 min at room temperature, and the binding of the antibody was detected with a flow cytometer (BioRad, ZE5).

T1 sequence (Q16288 32-839): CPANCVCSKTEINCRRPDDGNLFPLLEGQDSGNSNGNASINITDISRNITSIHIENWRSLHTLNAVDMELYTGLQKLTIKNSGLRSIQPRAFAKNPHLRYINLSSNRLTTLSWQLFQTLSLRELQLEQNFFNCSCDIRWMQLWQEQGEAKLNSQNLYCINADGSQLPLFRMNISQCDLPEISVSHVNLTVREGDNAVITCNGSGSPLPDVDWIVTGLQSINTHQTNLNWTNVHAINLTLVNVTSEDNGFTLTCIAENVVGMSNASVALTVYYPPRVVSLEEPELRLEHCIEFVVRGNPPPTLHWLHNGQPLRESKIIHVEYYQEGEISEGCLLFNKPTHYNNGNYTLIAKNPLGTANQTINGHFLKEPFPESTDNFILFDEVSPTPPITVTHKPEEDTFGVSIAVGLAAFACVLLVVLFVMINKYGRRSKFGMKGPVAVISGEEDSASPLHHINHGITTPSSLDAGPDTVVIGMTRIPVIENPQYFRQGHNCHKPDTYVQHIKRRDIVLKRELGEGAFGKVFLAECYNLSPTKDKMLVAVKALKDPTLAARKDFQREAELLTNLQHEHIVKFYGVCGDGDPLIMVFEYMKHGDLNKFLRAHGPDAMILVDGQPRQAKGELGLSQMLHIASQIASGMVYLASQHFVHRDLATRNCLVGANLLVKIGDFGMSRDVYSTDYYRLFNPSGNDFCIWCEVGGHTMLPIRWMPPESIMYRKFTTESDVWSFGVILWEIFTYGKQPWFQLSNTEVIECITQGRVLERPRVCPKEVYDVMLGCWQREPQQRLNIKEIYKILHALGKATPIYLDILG

| Binder | binding result |
| --- | --- |
| B1 | no binding (tested: 50 µl of 100 µg/mL) |
| B2 | no binding (tested: 50 µl of 100 µg/mL) |

target: T2, TrkA extracellular region (33-417) protein comprising human Fc (ACROBiosystems TRA-H5259) (human, UniProt P04629 33-417); test: competition ELISA, coated TrkA (33-417)-hFc, antibody titrated, competitor biotin-labeled human NGF
T2 construct: range 33-417; Bought fusion protein; also called human TrkA (33-417); human TrkA extracellular region
Method: Each well of a 96-well microtiter plate was coated with 50 ng of TrkA extracellular region (33-417) protein fused to human Fc, washed three times and blocked with 3% BSA for 1 hour. […] Each well was added with 100 μl and incubated at room temperature for 30 minutes. […] Streptavidin-labeled horseradish peroxidase (Streptavidin-HRP, Biolegend, 405210) was added and incubated for 0.5 hours. After washing three times, TMB was added to the plate, and the absorbance at 450 nm was read by a microplate reader after the color development was terminated.

T2 sequence (P04629 33-417 limits assumed): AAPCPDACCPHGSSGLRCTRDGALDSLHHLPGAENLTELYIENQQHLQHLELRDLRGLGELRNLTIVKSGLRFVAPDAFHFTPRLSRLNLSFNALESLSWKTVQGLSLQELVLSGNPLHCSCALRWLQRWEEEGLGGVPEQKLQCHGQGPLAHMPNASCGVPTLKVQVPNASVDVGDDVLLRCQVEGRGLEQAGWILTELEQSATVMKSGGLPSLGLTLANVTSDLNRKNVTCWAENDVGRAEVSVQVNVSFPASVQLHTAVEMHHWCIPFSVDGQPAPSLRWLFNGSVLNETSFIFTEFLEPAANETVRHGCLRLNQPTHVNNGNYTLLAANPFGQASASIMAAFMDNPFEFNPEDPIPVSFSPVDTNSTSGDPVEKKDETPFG

| Binder | IC50 [nM] |
| --- | --- |
| B3 | > 100 |

target: T1, human TrkC expressed on CHO cells …; test: flow cytometry on TrkC/CHO cells, FITC goat anti-human Fc
Method: as §1, §2

| Binder | binding result |
| --- | --- |
| B4 | no binding |
| B5 | no binding |
| B6 | no binding |
| B7 | no binding |

target: T3, human TrkB expressed on CHO cells (TrkB/CHO, ThermoFisher K1491) (human, UniProt Q16620 32-822); test: flow cytometry on TrkB/CHO cells, FITC goat anti-human Fc
T3 construct: whole, on cells
Method: as §1, §2

T3 sequence (Q16620 32-822): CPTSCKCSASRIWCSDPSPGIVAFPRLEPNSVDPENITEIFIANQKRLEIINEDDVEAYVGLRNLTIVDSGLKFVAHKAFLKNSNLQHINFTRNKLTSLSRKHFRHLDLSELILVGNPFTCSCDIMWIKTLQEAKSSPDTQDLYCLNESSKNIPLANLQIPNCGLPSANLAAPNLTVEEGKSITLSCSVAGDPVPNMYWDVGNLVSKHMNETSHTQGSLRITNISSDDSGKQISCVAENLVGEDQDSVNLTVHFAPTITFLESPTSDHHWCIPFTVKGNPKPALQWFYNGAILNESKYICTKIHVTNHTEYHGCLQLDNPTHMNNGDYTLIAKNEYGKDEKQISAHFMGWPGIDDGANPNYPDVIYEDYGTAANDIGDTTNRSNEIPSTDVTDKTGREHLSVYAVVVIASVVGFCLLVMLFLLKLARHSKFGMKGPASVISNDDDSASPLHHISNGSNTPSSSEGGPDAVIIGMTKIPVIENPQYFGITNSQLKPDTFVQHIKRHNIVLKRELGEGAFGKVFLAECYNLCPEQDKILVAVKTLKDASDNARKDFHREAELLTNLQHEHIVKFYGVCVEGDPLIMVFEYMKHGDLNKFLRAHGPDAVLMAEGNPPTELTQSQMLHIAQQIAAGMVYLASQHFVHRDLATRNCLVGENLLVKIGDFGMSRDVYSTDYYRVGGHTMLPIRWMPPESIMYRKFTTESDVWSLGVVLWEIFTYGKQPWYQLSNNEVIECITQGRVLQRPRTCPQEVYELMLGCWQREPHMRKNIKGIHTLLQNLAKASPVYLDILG

| Binder | binding result |
| --- | --- |
| B4 | no binding |
| B5 | no binding |
| B6 | no binding |
| B7 | no binding |

target: T4, full-length human TrkA expressed on cells (human, UniProt P04629 33-796); test: cell-based or functional assay
T4 sequence (P04629 33-796): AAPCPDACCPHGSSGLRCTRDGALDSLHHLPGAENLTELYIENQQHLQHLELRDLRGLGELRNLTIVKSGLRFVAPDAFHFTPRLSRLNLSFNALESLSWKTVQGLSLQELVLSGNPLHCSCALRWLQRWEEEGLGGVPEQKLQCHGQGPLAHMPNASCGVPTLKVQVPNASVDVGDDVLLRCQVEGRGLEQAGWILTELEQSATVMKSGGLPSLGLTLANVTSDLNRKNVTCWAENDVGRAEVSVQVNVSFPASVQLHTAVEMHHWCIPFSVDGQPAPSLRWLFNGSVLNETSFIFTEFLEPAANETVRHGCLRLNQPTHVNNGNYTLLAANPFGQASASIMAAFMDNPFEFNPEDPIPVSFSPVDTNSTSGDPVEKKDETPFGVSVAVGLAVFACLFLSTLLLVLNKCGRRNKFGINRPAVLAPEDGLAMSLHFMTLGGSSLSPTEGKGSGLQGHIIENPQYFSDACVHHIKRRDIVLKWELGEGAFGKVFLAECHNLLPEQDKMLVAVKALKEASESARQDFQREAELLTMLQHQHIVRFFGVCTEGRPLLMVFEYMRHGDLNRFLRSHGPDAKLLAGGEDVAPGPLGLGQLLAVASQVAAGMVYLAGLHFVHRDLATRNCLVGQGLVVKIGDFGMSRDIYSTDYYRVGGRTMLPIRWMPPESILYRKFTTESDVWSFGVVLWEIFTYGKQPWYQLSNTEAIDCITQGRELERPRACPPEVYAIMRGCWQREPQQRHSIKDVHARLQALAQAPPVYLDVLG

| Binder | IC50 of inhibiting NGF-induced TrkA/Ba/F3 cell proliferation [nM] |
| --- | --- |
| B1 | 2.91 |
| B2 | 3.69 |
| B4 | 3.54 |
| B5 | 3.31 |
| B6 | 3.27 |
| B7 | 2.81 |

target: T4, full-length human TrkA expressed on …; test: cell-based or functional assay; remark: another data set of the same source

| Binder | IC50 of inhibiting NGF-induced TF-1 cell proliferation [nM] |
| --- | --- |
| B1 | 1.43 |
| B2 | 1.69 |
| B4 | 1.65 |
| B5 | 0.867 |
| B6 | 1.94 |
| B7 | 1.4 |

target: full-length human TrkA expressed on cells (human) (UniProt P04629); test: cell-based or functional assay
Sequence (P04629 33-796): as above

| Binder | IC50 of inhibiting NGF-induced TF-1 cell proliferation [nM] | IC50 of inhibiting NGF-induced TrkA/Ba/F3 cell proliferation [nM] | inhibition rate for TrkA/Ba/F3 cell proliferation at 40 µg/mL (266.67 nM) [%] | inhibition rate on NGF-induced TF-1 cell proliferation at 40 µg/mL (266.67 nM) [%] |
| --- | --- | --- | --- | --- |
| B3 | > 200 | > 200 | < 50 | < 40 |

target: T5, human TrkA extracellular region (33-417) protein containing mouse Fc (human, UniProt P04629 33-417); test: ELISA, coated human TrkA (33-417)-mouse Fc, anti-human IgG-HRP
T5 construct: range 33-417
Method: Each well of a 96-well microtiter plate was coated with 50 ng of human TrkA, washed and blocked, then added with serially diluted humanized antibodies, and incubated for 1 hour at room temperature. After washing three times, horseradish peroxidase-conjugated goat anti-human IgG antibody (ThermoFisher, A18817) was added and reacted at room temperature for 1 hour. After washing three time, tetramethylbenzidine (TMB, Biolegend) was added for color development. 1M HCl was used to terminate the color development, and the absorbance values were read at 450 nm with a microplate reader.

T5 sequence (P04629 33-417 limits assumed): as the sequence (P04629 33-417 limits assumed) above

| Binder | EC50 [nM] |
| --- | --- |
| B1 | 0.056 |
| B2 | 0.07 |
| B4 | 0.055 |
| B5 | 0.087 |
| B6 | 0.071 |
| B7 | 0.05 |

target: T4, full-length human TrkA expressed on …; test: flow cytometry titration on TrkA/CHO cells
Method: as §2
The binding curve of the humanized anti-TrkA antibodies and TrkA/CHO cells was detected with the same flow cytometry.

| Binder | EC50 [nM] |
| --- | --- |
| B4 | 0.535 |
| B5 | 0.518 |
| B6 | 0.547 |
| B7 | 0.513 |

target: T3, human TrkB expressed on CHO cells …; test: flow cytometry on TrkB/CHO cells
Method: as §1, §2

| Binder | binding result |
| --- | --- |
| B1 | no binding (tested: 50 µl of 100 µg/mL) |
| B2 | no binding (tested: 50 µl of 100 µg/mL) |
